We go through two molecules from publication doi:10.1101/2022.11.08.515461 (bioRxiv, 2022).

By stoichiometry N is commonly meant the number of molecules, sites or subunits per partner or assembly.

The target of data set [1] is yeast dynein_(MOTOR) (wild-type; ZZ-TEV-dynein331-HALO) (budding yeast) (UniProt P36022). The data set is described as follows: mass photometry.
Data set [2] concerns the target yeast dynein_(MOTOR)^MT-U (microtubule-unbound mutant of the motor domain) (budding yeast | T. thermophilus) (UniProt P34945). The data set is described as follows: mass photometry.
The data set “mass photometry” concerns the molecule itself. As to the kind of experiment: mass photometry.
For data set [3], the target named is human dynein_(MOTOR)^MT-U (microtubule-unbound mutant of the motor domain) (human | T. thermophilus). The data set is described as follows: mass photometry.
The target of data set [4] is human dynein_(MOTOR)^MT-B (microtubule-bound mutant of the motor domain) (human | T. thermophilus). The data set is described as follows: mass photometry.
For data set [5], the target named is human dynein_(MOTOR)^MT-U (microtubule-unbound mutant of the motor domain) (human | T. thermophilus). As to the kind of experiment: cryo-EM structure.
Data set [6] deals with human dynein_(MOTOR) (wild-type motor domain, residues 1458-4646) (human, UniProt Q14204 1458-4646). As to the kind of experiment: mass photometry.
Chain of human dynein_(MOTOR) (wild-type motor domain, residues 1458-4646) (Q14204 1458-4646): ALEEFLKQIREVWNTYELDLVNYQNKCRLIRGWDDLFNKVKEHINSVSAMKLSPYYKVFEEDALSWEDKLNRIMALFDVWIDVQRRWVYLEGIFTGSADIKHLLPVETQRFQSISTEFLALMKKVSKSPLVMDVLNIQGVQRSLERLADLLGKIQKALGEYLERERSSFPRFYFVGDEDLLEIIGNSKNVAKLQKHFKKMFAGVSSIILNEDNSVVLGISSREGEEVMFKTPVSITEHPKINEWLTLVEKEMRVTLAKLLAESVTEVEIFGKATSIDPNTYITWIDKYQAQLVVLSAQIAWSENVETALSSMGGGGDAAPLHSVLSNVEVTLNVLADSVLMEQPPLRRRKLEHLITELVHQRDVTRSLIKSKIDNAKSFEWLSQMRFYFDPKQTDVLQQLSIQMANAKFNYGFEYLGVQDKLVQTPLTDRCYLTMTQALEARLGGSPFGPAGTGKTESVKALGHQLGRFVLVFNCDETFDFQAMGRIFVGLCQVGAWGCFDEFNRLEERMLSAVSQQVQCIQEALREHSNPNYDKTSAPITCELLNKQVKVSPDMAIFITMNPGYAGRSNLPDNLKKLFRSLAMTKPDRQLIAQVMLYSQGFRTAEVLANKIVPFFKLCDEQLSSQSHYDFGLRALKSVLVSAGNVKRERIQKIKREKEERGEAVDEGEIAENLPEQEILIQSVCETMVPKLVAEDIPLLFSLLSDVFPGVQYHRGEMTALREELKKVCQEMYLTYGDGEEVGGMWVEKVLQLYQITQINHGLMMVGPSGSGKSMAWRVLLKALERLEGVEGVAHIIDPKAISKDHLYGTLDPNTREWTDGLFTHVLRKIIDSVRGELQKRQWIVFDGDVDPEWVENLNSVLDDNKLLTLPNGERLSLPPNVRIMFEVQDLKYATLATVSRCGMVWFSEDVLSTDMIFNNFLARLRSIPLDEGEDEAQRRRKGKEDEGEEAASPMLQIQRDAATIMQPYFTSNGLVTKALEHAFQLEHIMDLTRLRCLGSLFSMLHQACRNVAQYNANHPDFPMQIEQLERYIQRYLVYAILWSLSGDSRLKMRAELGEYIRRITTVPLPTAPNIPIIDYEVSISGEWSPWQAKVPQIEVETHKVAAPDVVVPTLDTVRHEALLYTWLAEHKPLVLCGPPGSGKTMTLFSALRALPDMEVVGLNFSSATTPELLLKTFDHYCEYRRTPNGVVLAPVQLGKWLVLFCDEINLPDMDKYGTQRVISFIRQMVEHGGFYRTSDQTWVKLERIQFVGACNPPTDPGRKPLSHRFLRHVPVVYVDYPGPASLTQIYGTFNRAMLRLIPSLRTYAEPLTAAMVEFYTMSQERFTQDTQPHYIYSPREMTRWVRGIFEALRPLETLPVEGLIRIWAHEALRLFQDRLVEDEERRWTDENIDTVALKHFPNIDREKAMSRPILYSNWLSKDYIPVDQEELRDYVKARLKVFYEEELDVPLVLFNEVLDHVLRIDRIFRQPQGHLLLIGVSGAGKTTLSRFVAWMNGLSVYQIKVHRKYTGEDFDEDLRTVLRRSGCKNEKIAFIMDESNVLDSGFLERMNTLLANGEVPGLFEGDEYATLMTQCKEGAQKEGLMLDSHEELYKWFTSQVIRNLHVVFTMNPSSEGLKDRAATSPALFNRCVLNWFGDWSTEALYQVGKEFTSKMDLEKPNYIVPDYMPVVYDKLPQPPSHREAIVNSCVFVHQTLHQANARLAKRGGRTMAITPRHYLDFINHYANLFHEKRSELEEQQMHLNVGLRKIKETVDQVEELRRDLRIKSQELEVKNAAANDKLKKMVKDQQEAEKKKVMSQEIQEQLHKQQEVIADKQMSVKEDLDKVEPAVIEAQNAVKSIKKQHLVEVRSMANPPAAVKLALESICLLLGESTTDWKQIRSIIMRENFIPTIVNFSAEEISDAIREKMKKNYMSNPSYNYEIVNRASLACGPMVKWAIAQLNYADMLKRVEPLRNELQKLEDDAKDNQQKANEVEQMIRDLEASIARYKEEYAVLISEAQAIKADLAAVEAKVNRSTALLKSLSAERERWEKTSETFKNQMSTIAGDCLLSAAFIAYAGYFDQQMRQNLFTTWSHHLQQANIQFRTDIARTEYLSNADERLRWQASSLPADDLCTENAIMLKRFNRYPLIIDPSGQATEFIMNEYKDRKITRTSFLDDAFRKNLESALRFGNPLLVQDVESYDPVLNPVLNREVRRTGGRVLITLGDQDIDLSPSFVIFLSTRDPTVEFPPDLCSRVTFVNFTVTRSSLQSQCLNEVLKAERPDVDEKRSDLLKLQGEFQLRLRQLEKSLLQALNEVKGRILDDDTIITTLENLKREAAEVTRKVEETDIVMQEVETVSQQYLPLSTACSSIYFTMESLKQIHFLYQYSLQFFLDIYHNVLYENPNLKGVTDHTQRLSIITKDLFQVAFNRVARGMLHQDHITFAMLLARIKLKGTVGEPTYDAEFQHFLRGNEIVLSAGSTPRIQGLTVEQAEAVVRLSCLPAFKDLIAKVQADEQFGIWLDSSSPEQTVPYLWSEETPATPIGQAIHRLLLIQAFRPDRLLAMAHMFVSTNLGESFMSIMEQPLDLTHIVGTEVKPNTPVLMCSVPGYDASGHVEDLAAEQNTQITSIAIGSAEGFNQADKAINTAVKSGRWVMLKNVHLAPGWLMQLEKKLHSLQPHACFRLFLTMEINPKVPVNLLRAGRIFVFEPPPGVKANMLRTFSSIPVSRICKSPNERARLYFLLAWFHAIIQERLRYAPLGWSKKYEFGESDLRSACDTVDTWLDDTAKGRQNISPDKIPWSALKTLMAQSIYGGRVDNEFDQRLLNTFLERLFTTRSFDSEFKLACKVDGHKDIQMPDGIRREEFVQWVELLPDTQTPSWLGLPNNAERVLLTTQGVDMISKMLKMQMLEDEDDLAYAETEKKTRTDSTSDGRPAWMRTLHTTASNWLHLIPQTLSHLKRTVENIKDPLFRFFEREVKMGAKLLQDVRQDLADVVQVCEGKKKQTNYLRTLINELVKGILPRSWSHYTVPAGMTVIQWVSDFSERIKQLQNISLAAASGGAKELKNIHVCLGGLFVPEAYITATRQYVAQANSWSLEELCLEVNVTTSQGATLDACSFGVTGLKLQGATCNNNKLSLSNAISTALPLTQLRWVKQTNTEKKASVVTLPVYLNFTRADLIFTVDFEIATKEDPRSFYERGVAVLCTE

Chain of yeast dynein_(MOTOR)^MT-U (microtubule-unbound mutant of the motor domain) (budding yeast | T. thermophilus) (P34945 whole entry, change not shown, the tested form may be a part): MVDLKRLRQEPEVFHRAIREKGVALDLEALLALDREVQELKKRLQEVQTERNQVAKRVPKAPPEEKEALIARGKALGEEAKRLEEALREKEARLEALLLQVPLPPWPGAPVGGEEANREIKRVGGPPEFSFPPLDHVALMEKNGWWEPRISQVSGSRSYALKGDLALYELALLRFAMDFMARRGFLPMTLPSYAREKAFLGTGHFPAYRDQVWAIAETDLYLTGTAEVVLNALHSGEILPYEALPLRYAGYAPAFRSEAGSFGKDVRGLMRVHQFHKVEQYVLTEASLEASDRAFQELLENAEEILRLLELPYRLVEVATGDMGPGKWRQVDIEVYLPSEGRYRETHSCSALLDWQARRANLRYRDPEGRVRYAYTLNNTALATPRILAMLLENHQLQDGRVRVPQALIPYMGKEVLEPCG

B1: Pac1-SNAP (natural protein)
chain: MTNWQQQLPLTDTQKNELDKSVLRYLNWNYKQTVRHEHAQDYESVRHAIVTLSGFLLQESVDRQEFISNNDTSNESMVDIDELLLPKKWNSIVRLQKKIIELEQNTETLVSQIKDLNTQVSELAQFKPTTSNGTSAHNVLKWIPRNLPSCLINVESSVTSVKLHPNLPIVFVATDHGKLYAFDLFNYTIPLASLQSHTKAITSMDVLFTNYTNSSKKNYLVIVTASKDLQIHVFKWVSEECKFQQIRSLLGHEHIVSAVKIWQKNNDVHIASCSRDQTVKIWDFHNGWSLKTFQPHSQWVRSIDVLGDYIISGSHDTTLRLTHWPSGNGLSVGTGHEFPIEKVKFIHFIEDSPEIRFRTPSTDRYKNWGMQYCVSASRDRTIKIWEIPLPTLMAHRAPIPNPTDSNFRCVLTLKGHLSWVRDISIRGQYLFSCADDKSVRCWDLNTGQCLHVWEKLHTGFVNCLDLDVDFDSNVTPRQMMVTGGLDCKSNVFMR
modifications: JF646-SNAP-tag ligand on the SNAP tag (fluorescent labelling)
Regarding B1, in data set [1], the N of the second species (∼890 kDa) (dynein monomers per Pac1 dimer) is 2. In data set [2], this molecule showed a stoichiometry N (Pac1 dimer per dynein (MOTOR) monomer) of 1. Moreover, the “stoichiometry N” value in “mass photometry” was 2.

B2: human LIS1-SNAP (from pFastBac:8His-ZZ-TEV-LIS1-SNAPf) (natural protein)
chain: MVLSQRQRDELNRAIADYLRSNGYEEAYSVFKKEAELDVNEELDKKYAGLLEKKWTSVIRLQKKVMELESKLNEAKEEFTSGGPLGQKRDPKEWIPRPPEKYALSGHRSPVTRVIFHPVFSVMVSASEDATIKVWDYETGDFERTLKGHTDSVQDISFDHSGKLLASCSADMTIKLWDFQGFECIRTMHGHDHNVSSVAIMPNGDHIVSASRDKTIKMWEVQTGYCVKTFTGHREWVRMVRPNQDGTLIASCSNDQTVRVWVVATKECKAELREHEHVVECISWAPESSYSSISEATGSETKKSGKPGPFLLSGSRDKTIKMWDVSTGMCLMTLVGHDNWVRGVLFHSGGKFILSCADDKTLRVWDYKNKRCMKTLNAHEHFVTSLDFHKTAPYVVTGSVDQTVKVWECR
In data set [3], B2 showed a fold LIS1-binding affinity against dynein (MOTOR)^MT-B of 2 fold and a stoichiometry N (LIS1 dimer per dynein (MOTOR) monomer) of 1. In data set [4], the stoichiometry N (LIS1 dimer per dynein (MOTOR) monomer) came to 1. In data set [5], the percent of particles with 1 LIS1 bound (3D classification) turned out to be 36.2%, the percent of particles with 2 LIS1 bound (3D classification) was found to be 29.3% and the percent of particles with “1.5” LIS1 bound (3D classification) was determined as 34.4%. The stoichiometry N in data set [5] (scale: LIS1 WD40 beta-propellers per dynein motor) turned out to be 2. Also, the binding result in data set [6] is recorded as “binds”.
